# From US20030171289A1 (INSTITUT PASTEUR, published 2003)
# B1: phage-displayed peptide V6 (M13 phage clone) (peptide)
# chain: LPPNPTK
# notes: not shown: M13 phage coat protein of the Ph.D.-7 library
# B2: phage-displayed peptide V4 (M13 phage clone) (peptide)
# chain: YHSSFQA
# notes: as for B1
# B3: phage-displayed peptide V7 (M13 phage clone) (peptide)
# chain: YAIMPLV
# notes: as for B1
# B4: phage-displayed peptide V3 (M13 phage clone) (peptide)
# chain: ANLFKAK
# notes: as for B1
# B5: phage-displayed peptide V2 (M13 phage clone) (peptide)
# chain: NPRALNY
# notes: as for B1
# B6: phage-displayed peptide V5 (M13 phage clone) (peptide)
# chain: ILDNYKL
# notes: as for B1
# B7: phage-displayed peptide K5 (M13 phage clone) (peptide)
# chain: HSSLQTP
# notes: as for B1
# B8: phage-displayed peptide K6 (M13 phage clone) (peptide)
# chain: YSIPKSS
# notes: as for B1
# B9: phage-displayed peptide K4 (M13 phage clone) (peptide)
# chain: SLPAHAR
# notes: as for B1
# B10: phage-displayed peptide K2 (M13 phage clone) (peptide)
# chain: WPTPPYA
# notes: as for B1
# B11: phage-displayed peptide K3 (M13 phage clone) (peptide)
# chain: TPHNTVS
# notes: as for B1
# B12: phage-displayed peptide K7 (M13 phage clone) (peptide)
# chain: ALQPRYL
# notes: as for B1
# B13: phage-displayed peptide K1 (M13 phage clone) (peptide)
# chain: YLTMPTP
# notes: as for B1
# B14: V1 analogue A11 (the 6 amino acids upstream to arginine substituted by alanine) (peptide)
# peptide: AAAAAAR
# notes: position 1 is already alanine
# B15: V1 analogue A2 (peptide)
# peptide: AAWLPPR
# notes: Ala scan analogue of ATWLPPR (V1)
# B16: V1 analogue A5 (peptide)
# peptide: ATWLAPR
# notes: as for B15
# B17: V1 analogue A6 (peptide)
# peptide: ATWLPAR
# notes: as for B15
# B18: V1 analogue A4 (peptide)
# peptide: ATWAPPR
# notes: as for B15
# B19: V1 analogue A3 (peptide)
# peptide: ATALPPR
# notes: as for B15
# B20: synthetic peptide V1 (ATWLPPR) (peptide)
# peptide: ATWLPPR
# notes: Synthetic peptide (Neosystem); also called V1 peptide
# B21: synthetic peptide K4 (SLPAHAR) (peptide)
# peptide: SLPAHAR
# notes: Synthetic peptide (Neosystem)
# Target: T1, KDR (kinase domain receptor, VEGFR-2) expressed on cells (UniProt P35968 20-1356, limits assumed)
# T1 construct: whole, on cells; The same molecule is used for KDR on CHO-KDR cells and for VEGF-R2 on HUV-EC cells; the cells are named under assay; also called KDR/Flk-1; VR2
# T1 sequence (P35968 20-1356 limits assumed): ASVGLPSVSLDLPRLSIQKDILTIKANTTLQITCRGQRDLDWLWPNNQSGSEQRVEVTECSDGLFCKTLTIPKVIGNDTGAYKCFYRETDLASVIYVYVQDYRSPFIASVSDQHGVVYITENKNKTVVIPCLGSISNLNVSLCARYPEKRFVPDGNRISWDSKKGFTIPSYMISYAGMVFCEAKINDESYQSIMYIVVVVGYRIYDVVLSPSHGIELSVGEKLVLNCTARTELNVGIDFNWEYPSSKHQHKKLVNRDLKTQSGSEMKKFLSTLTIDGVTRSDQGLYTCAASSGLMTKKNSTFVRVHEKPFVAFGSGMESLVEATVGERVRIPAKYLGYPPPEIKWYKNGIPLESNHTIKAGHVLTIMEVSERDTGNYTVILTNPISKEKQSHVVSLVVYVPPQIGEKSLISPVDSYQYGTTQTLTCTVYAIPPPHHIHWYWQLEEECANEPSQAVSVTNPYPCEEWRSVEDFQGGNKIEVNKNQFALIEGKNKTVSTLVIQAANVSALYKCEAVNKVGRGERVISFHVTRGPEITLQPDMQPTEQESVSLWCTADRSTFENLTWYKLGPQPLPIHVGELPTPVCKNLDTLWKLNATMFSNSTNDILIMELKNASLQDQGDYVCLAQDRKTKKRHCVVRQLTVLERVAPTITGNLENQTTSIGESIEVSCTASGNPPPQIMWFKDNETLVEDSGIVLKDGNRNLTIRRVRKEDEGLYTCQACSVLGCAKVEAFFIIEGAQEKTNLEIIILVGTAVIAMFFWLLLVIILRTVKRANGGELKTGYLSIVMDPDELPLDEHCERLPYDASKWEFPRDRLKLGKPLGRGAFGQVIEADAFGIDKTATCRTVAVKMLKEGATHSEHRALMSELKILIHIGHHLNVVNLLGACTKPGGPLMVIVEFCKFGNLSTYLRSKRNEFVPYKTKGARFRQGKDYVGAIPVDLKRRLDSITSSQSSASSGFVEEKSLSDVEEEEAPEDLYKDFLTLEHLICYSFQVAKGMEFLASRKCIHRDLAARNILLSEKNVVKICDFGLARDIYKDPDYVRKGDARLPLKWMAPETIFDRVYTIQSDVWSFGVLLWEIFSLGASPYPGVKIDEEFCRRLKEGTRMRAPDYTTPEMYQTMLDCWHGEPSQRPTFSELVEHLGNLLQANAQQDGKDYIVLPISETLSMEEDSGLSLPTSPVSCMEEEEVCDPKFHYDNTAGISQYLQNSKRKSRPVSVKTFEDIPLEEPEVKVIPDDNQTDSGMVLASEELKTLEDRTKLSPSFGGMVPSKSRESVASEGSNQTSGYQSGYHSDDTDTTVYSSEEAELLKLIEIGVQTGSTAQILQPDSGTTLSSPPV
# Test: phage ELISA on fixed CHO-KDR cells
# Description: (§1) Exponentially growing CHO-KDR cells were seeded in 96-well microtiter plates at 7×10⁴ cells/well and left overnight at 37 C. Cells were fixed with paraformaldehyde (4% in PBS) for 15 min at room temperature and washed with PBS. Wells were then filled with PBS-Glycine 0.2%, kept for 15 min at room temperature and then washed with PBS. Phage particles (10¹² or 10¹³/ml) were added to each well and incubated 2 h at room temperature. Wells were washed with PBS and the amount of bound phage was detected with peroxidase-conjugated anti-M13 phage serum (Pharmacia Biotech, Uppsala, Sweden).
row,Binder,binding result
1,B1,binds
2,B2,binds
3,B3,binds
4,B4,binds
5,B5,binds
6,B6,binds

# Target: T1, KDR (kinase domain receptor, VEGFR-2) …
# Test: phage ELISA on CHO-KDR cells, 10^13 pfu/ml
# Description: Results are representative of three independent assays.
# as §1
row,Binder,binding result
1,B7,binds
2,B8,binds
3,B9,binds
4,B10,binds
5,B11,binds
6,B12,binds
7,B13,binds

# Target: T1, KDR (kinase domain receptor, VEGFR-2) …
# Test: displacement of 125I-VEGF165 from CHO-KDR cells
row,Binder,factor by which the inhibitory efficiency is lowered against V1 [fold]
1,B14,10

# Target: T1, KDR (kinase domain receptor, VEGFR-2) …
# Test: displacement of 125I-VEGF165 from CHO-KDR cells
# Remark: another data set of the same source
row,Binder,Efficiency (% Emax)
1,B15,61
2,B16,65
3,B17,84
4,B18,31
5,B19,70
6,B20,100

# Target: T1, KDR (kinase domain receptor, VEGFR-2) …
# Test: competition with 125I-VEGF for binding to CHO-KDR cells
# Description: (§2) Competition assay of binding to CHO-KDR cells. CHO-KDR cells were seeded in 24-well plates at a density of 5×10⁵ cells/well. After 24 h, subconfluent plates were transferred at 4 C, and all subsequent operations were done at 4 C. […] After 3 h, cells were washed five times with binding buffer and solubilized by the addition of 0.5 M NaOH.
row,Binder,IC50 [µM]
1,B20,~80

# Target: T1, KDR (kinase domain receptor, VEGFR-2) …
# Test: displacement of 125I-VEGF165 from CHO-KDR cells, curve fitting (CI50)
row,Binder,IC50 [µM]
1,B15,30.9
2,B16,29.1
3,B17,22.4
4,B18,60.7
5,B19,26.8
6,B20,18.8

# Target: T2, neuropilin 1 (UniProt O14786 22-923, limits assumed)
# T2 construct: whole, on cells; also called NP 1; NP1
# T2 sequence (O14786 22-923 limits assumed): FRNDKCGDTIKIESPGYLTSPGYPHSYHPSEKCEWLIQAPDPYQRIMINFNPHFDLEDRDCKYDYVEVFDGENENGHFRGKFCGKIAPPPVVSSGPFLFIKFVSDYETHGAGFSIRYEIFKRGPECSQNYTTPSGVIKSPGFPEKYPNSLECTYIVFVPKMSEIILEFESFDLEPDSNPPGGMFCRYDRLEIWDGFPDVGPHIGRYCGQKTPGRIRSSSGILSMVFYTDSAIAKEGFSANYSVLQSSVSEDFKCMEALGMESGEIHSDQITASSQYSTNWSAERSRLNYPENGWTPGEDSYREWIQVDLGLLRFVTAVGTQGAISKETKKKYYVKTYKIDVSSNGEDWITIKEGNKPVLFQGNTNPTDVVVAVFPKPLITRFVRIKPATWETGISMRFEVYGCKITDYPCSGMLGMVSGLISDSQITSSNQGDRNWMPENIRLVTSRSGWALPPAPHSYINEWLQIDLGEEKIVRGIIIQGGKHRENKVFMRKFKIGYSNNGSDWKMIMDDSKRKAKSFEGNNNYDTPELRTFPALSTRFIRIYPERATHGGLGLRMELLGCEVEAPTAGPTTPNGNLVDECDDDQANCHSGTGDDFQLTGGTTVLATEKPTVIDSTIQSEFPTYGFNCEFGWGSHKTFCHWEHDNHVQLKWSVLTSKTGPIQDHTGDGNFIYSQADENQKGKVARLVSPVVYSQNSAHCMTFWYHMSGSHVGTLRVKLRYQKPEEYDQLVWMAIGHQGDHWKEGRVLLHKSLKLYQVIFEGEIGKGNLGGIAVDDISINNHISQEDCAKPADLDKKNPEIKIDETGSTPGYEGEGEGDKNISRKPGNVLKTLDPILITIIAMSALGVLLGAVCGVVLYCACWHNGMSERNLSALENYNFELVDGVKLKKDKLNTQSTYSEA
# Test: displacement of 125I-VEGF165 from MDA-MB 231 cells (neuropilin 1, no VEGF-R2)
row,Binder,IC50 [µg/mL]
1,B20,38

# Target: T1, KDR (kinase domain receptor, VEGFR-2) …
# Test: competition with 125I-VEGF for binding to CHO-KDR cells, fixed peptide concentration
# Description: as §2
row,Binder,binding result
1,B21,binds
